Broadly, the half-life is the time needed for the level to fall by half in the phase considered. The low end stands for rapid decline, the high end for slow decline. As a reminder, the solubility is the concentration that dissolves in the medium under given conditions. Read a low solubility as little dissolved substance. The term Solubility denotes how much of the substance goes into solution per volume. High values mean much dissolved substance, low ones little dissolved substance. The thermodynamic solubility is the concentration in solution at equilibrium with solid.

“And” between values parts separate entries of the source, which are not always exact repeats. Identical values can stand only once. Like-named read-outs stand apart in the source and are kept apart here. A value given as a limit tells only on which side of the number the result lay.

A short description of series [1]: Autocatalytic cleavage of the glycosylated linker moiety in aqueous solution, traced by HPLC (elimination half-life). On the procedure: To each sampled solution, a 0.5% aqueous TFA solution (28 μL) was added, and this solution was then frozen. The obtained solution was dissolved immediately before HPLC analysis, and a 50 μL aliquot thereof was injected and analyzed by HPLC [column: SHISEIDO CAPCELL PAK C18 UG-120 (5 μm), φ4.6×250 mm, flow rate: 0.7 mL/min, eluent A: 0.1% TFA in water, eluent B: 0.09% TFA/10% water/90% acetonitrile, gradient A:B=77:23→50:50 (20 min) linear concentration gradient elution]. The compound was detected using a diode array detector with a detection wavelength set to 220 nm.

Series [2] is described as follows: Solubility in 0.1% aqueous TFA solution (absorbance of supernatant at 280 nm). On the procedure:
To each microtube, 30 μL of a 0.1% aqueous TFA solution was added. These microtubes were shaken at 25° C. for 15 minutes and then centrifuged at 16100×g at 25° C. for 10 minutes. Subsequently, the absorbance of the supernatant at 280 nm was measured in each of these microtubes.
Then, three of these tubes were used in amino acid composition analysis to determine sample contents. […] This absorbance at 280 nm was divided by the concentration determined in the amino acid composition analysis to determine the molar absorption coefficient.
The molar absorption coefficient εM of the HER28-16 peptide (SEQ ID NO: 15) at 280 nm was calculated according to the following expression (C. N. Pace et al., Prot. Sci., 1995, 4, pp. 2411-2423): εM=Trp×5500+Tyr×1490+Cystine×125[A280/mol/cm]
wherein Trp represents the number of tryptophan residues, Tyr represents the number of tyrosine residues, and Cystine represents the number of disulfide bonds.

Setting [3] is: PBS solution, pH 7.4, Elimination half-life, PBS (pH 7.4), 25° C.
The mark [4] stands for this setting: PBS solution, pH 7.4, Elimination half-life, PBS (pH 7.4), 37° C.
Setting [5] is: acetate buffer solution, pH 4, Elimination half-life, Acetate buffer solution (pH 4.0), 25° C.
Where [6] appears, read: acetate buffer solution, pH 4, Elimination half-life, Acetate buffer solution (pH 4.0), 37° C.

Consider `CC(=O)N[C@@H]1[C@@H](O)[C@H](O[C@@H]2O[C@H](CO)[C@@H](O[C@@H]3O[C@H](CO[C@H]4O[C@H](CO)[C@@H](O)[C@H](O)[C@@H]4O[C@@H]4O[C@H](CO)[C@@H](O[C@@H]5O[C@H](CO)[C@H](O)[C@H](O)[C@H]5O)[C@H](O)[C@H]4NC(C)=O)[C@@H](O)[C@H](O[C@H]4O[C@H](CO)[C@@H](O)[C@H](O)[C@@H]4O[C@@H]4O[C@H](CO)[C@@H](O[C@@H]5O[C@H](CO)[C@H](O)[C@H](O)[C@H]5O)[C@H](O)[C@H]4NC(C)=O)[C@@H]3O)[C@H](O)[C@H]2NC(C)=O)[C@@H](CO)O[C@H]1NC(=O)CC(N)C(=O)N1CCN(CCNC(=O)c2ccccc2C(=O)N[C@@H](CCCNC(=N)N)C(=O)N[C@@H](Cc2c[nH]c3ccccc23)C(=O)NCC(=O)N[C@@H](CC(C)C)C(=O)N[C@@H](CC(C)C)C(=O)N[C@@H](CC(C)C)C(=O)N[C@@H](C)C(=O)N[C@@H](CC(C)C)C(=O)N[C@@H](CC(C)C)C(=O)O)CC1` (stereo partly shown) [compound 11, glycosylated (Asn (asialo)-type) linker-HER28-16 conjugate], for which the half-life is 8.3 h in series [1] (setting [3]), 2.6 h in series [1] (setting [4]), 21.4 h in series [1] (setting [5]) and 6.2 h in series [1] (setting [6]). In addition, the solubility at 15 minutes is above 38 mM in series [2] and at least 38 mM in series [2] (Solubility (molar concentration), 0.1% aqueous TFA solution, 25° C.). Also, the Solubility in series [2] (0.1% aqueous TFA solution, 25° C., listed as Glycosylated linker-HER28-16 conjugate (compound 11)) was above 116 mg/mL.
Take `CC(=O)N[C@@H]1[C@@H](O)[C@H](O)[C@@H](CO)O[C@H]1NC(=O)CSC[C@H](N)C(=O)N1CCN(CCNC(=O)c2ccccc2C(=O)N[C@@H](Cc2ccc(O)cc2)C(=O)N[C@@H](Cc2ccccc2)C(=O)N2CCC[C@H]2C(=O)NCC(=O)N[C@@H](CCC(N)=O)C(=O)N[C@@H](Cc2ccccc2)C(=O)N[C@@H](C)C(=O)N[C@@H](Cc2ccccc2)C(=O)N[C@@H](CO)C(=O)O)CC1` [compound 4, glycosylated (Cys (GlcNAc)-type) linker-chemerin 9 conjugate]: the half-life in series [1] (setting [4]) is 1.4 h; in series [1] (setting [6]), 4.3 h.
Take `CC(=O)N[C@@H]1[C@@H](O)[C@H](O[C@@H]2O[C@H](CO)[C@@H](O[C@@H]3O[C@H](CO[C@H]4O[C@H](CO)[C@@H](O)[C@H](O)[C@@H]4O[C@@H]4O[C@H](CO)[C@@H](O[C@@H]5O[C@H](CO)[C@H](O)[C@H](O)[C@H]5O)[C@H](O)[C@H]4NC(C)=O)[C@@H](O)[C@H](O[C@H]4O[C@H](CO)[C@@H](O)[C@H](O)[C@@H]4O[C@@H]4O[C@H](CO)[C@@H](O[C@@H]5O[C@H](CO)[C@H](O)[C@H](O)[C@H]5O)[C@H](O)[C@H]4NC(C)=O)[C@@H]3O)[C@H](O)[C@H]2NC(C)=O)[C@@H](CO)O[C@H]1NC(=O)CSCC(N)C(=O)N1CCN(CCNC(=O)c2ccccc2C(=O)N[C@@H](Cc2ccc(O)cc2)C(=O)N[C@@H](Cc2ccccc2)C(=O)N2CCC[C@H]2C(=O)NCC(=O)N[C@@H](CCC(N)=O)C(=O)N[C@@H](Cc2ccccc2)C(=O)N[C@@H](C)C(=O)N[C@@H](Cc2ccccc2)C(=O)N[C@@H](CO)C(=O)O)CC1` (stereo partly shown) [compound 5, glycosylated (Cys (asialo)-type) linker-chemerin 9 conjugate]: the half-life was 1.3 h in series [1] (setting [4]) and 4.5 h in series [1] (setting [6]).
For the molecule `CC(=O)N[C@@H]1[C@@H](O)[C@H](O[C@@H]2O[C@H](CO)[C@@H](O[C@@H]3O[C@H](CO[C@H]4O[C@H](CO)[C@@H](O)[C@H](O)[C@@H]4O[C@@H]4O[C@H](CO)[C@@H](O[C@@H]5O[C@H](CO)[C@H](O)[C@H](O)[C@H]5O)[C@H](O)[C@H]4NC(C)=O)[C@@H](O)[C@H](O[C@H]4O[C@H](CO)[C@@H](O)[C@H](O)[C@@H]4O[C@@H]4O[C@H](CO)[C@@H](O[C@@H]5O[C@H](CO)[C@H](O)[C@H](O)[C@H]5O)[C@H](O)[C@H]4NC(C)=O)[C@@H]3O)[C@H](O)[C@H]2NC(C)=O)[C@@H](CO)O[C@H]1NC(=O)CC(N)C(=O)N1CCN(CCNC(=O)c2ccccc2C(=O)N[C@@H](Cc2ccc(O)cc2)C(=O)N[C@@H](Cc2ccccc2)C(=O)N2CCC[C@H]2C(=O)NCC(=O)N[C@@H](CCC(N)=O)C(=O)N[C@@H](Cc2ccccc2)C(=O)N[C@@H](C)C(=O)N[C@@H](Cc2ccccc2)C(=O)N[C@@H](CO)C(=O)O)CC1` (stereo partly shown) [compound 1, glycosylated (Asn (asialo)-type) linker-chemerin 9 conjugate], the half-life is 43.1 h in series [1] (PBS solution, pH 7.4, Elimination half-life, PBS (pH 7.4), 4° C.); 4.3 h in series [1] (setting [3]); 1.2 h in series [1] (setting [4]); 250 h in series [1] (acetate buffer solution, pH 4, Elimination half-life, Acetate buffer solution (pH 4.0), 4° C.); 16 h in series [1] (setting [5]); 4.4 h in series [1] (setting [6]). In series [1] (water, Elimination half-life (Reference), in water, 4° C.), this molecule had a half-life of 221 h.
Take `CC(=O)N[C@@H]1[C@@H](O)[C@H](O[C@@H]2O[C@H](CO)[C@@H](O[C@@H]3O[C@H](CO[C@H]4O[C@H](CO)[C@@H](O)[C@H](O)[C@@H]4O[C@@H]4O[C@H](CO)[C@@H](O[C@@H]5O[C@H](CO)[C@H](O)[C@H](O)[C@H]5O)[C@H](O)[C@H]4NC(C)=O)[C@@H](O)[C@H](O[C@H]4O[C@H](CO)[C@@H](O)[C@H](O)[C@@H]4O[C@@H]4O[C@H](CO)[C@@H](O[C@@H]5O[C@H](CO)[C@H](O)[C@H](O)[C@H]5O)[C@H](O)[C@H]4NC(C)=O)[C@@H]3O)[C@H](O)[C@H]2NC(C)=O)[C@@H](CO)O[C@H]1NC(=O)CC(NC(=O)OCC1c2ccccc2-c2ccccc21)C(=O)N1CCN(CCNC(=O)c2ccccc2C(=O)N[C@@H](Cc2ccc(O)cc2)C(=O)N[C@@H](Cc2ccccc2)C(=O)N2CCC[C@H]2C(=O)NCC(=O)N[C@@H](CCC(N)=O)C(=O)N[C@@H](Cc2ccccc2)C(=O)N[C@@H](C)C(=O)N[C@@H](Cc2ccccc2)C(=O)N[C@@H](CO)C(=O)O)CC1` (stereo partly shown) [compound 7, glycosylated (Fmoc-Asn (asialo)-type) linker-chemerin 9 conjugate]: the results for the half-life in series [1] (setting [4]) and in series [1] (setting [6]) were 2.6 h and 12.2 h, respectively.
On to `CC(C)C[C@H](NC(=O)[C@H](CC(C)C)NC(=O)[C@H](C)NC(=O)[C@H](CC(C)C)NC(=O)[C@H](CC(C)C)NC(=O)[C@H](CC(C)C)NC(=O)CNC(=O)[C@H](Cc1c[nH]c2ccccc12)NC(=O)[C@@H](N)CCCNC(=N)N)C(=O)O` [HER28-16, reference compound], for which the thermodynamic solubility at 15 min in series [2] is 210 µg/mL and 200 µM.
As to `CC(=O)N[C@@H]1[C@@H](O)[C@H](O[C@@H]2O[C@H](CO)[C@@H](O[C@@H]3O[C@H](CO[C@H]4O[C@H](CO)[C@@H](O)[C@H](O)[C@@H]4O[C@@H]4O[C@H](CO)[C@@H](O[C@@H]5O[C@H](CO)[C@H](O)[C@H](O)[C@H]5O)[C@H](O)[C@H]4NC(C)=O)[C@@H](O)[C@H](O[C@H]4O[C@H](CO)[C@@H](O)[C@H](O)[C@@H]4O[C@@H]4O[C@H](CO)[C@@H](O[C@@H]5O[C@H](CO)[C@H](O)[C@H](O)[C@H]5O)[C@H](O)[C@H]4NC(C)=O)[C@@H]3O)[C@H](O)[C@H]2NC(C)=O)[C@@H](CO)O[C@H]1NC(=O)CC(N)C(=O)N1CCN(CCNC(=O)c2c(Cl)c(Cl)c(Cl)c(Cl)c2C(=O)N[C@@H](Cc2ccc(O)cc2)C(=O)N[C@@H](Cc2ccccc2)C(=O)N2CCC[C@H]2C(=O)NCC(=O)N[C@@H](CCC(N)=O)C(=O)N[C@@H](Cc2ccccc2)C(=O)N[C@@H](C)C(=O)N[C@@H](Cc2ccccc2)C(=O)N[C@@H](CO)C(=O)O)CC1` (stereo partly shown) [compound 10, glycosylated (Asn (asialo)-tetrachlorophthaloyl-type) linker-chemerin 9 conjugate], the half-life in series [1] (setting [3]) is 1.1 h; in series [1] (setting [4]) it was 0.255 h; in series [1] (setting [5]) it was 4.5 h; in series [1] (setting [6]), 1.3 h.

For the origin of these results see US9708413B2, “Glycosylated linker, compound containing glycosylated linker moiety and physiologically active substance moiety or salt thereof, and methods for producing said compound or salt thereof” (Glytech, Inc., priority 2012, dated 2017).
